By EC50 is commonly meant the concentration that produces a half-maximal response.

The test addresses recombinant human C2. The test can be described thus: ECL_MSD. Conditions: pH 6.0; 0.2 mol/L citric acid, 0.2 mol/L sodium citrate; 150 mmol/L NaCl.

In the case of ARGX-117, the EC50 was 32.2 µg/mL.

(Values after article PMC7485568.)
